Numbered stars: 1 amine (or outer) side, 2 acyl side, 3 side chain; on linkers, the order of the positions; unused ones are H or OH. Bridge positions count the residues as written; N and C are the ends. Square brackets hold non-standard residues; d marks the D form. Ends that are not written are not given here. * marks the point of attachment. 4MeOPhe = 4-methoxy-phenylalanine, COc1ccc(C[C@H](N[*:1])C(=O)[*:2])cc1; TATA = O=C(CC[*:1])N1CN(C(=O)CC[*:2])CN(C(=O)CC[*:3])C1; Phe(4-CONH2) = NC(=O)c1ccc(C[C@H](N)C(=O)O)cc1; Phe(4-F) = N[C@@H](Cc1ccc(F)cc1)C(=O)O; 1Nal = N[C@@H](Cc1cccc2ccccc12)C(=O)O; 2Nal = N[C@@H](Cc1ccc2ccccc2c1)C(=O)O; Ala(cPent) = N[C@@H](CC1CCCC1)C(=O)O; tBuAla = CC(C)(C)C[C@H](N)C(=O)O; Cba = N[C@@H](CC1CCC1)C(=O)O; Pent4ynoyl = C#CCCC(=O)*; Aib = CC(C)(N)C(=O)O
B1: BCY16834 (peptide)
peptide: ACK(Pent4ynoyl)LPDYLCGDEYCA-NH2
modifications: linker 2-9-14 via TATA; N-terminus assumed
SMILES: C#CCCC(=O)NCCCC[C@@H]1NC(=O)[C@@H](NC(=O)[C@H](C)N)CSCCC(=O)N2CN3CN(C2)C(=O)CCSC[C@@H](C(=O)N[C@@H](C)C(N)=O)NC(=O)[C@H](Cc2ccc(O)cc2)NC(=O)[C@H](CCC(=O)O)NC(=O)[C@H](CC(=O)O)NC(=O)CNC(=O)[C@H](CSCCC3=O)NC(=O)[C@H](CC(C)C)NC(=O)[C@H](Cc2ccc(O)cc2)NC(=O)[C@H](CC(=O)O)NC(=O)[C@@H]2CCCN2C(=O)[C@H](CC(C)C)NC1=O
notes: scaffold TATA
B2: BCY15643 (peptide)
peptide: ACYLPD[1Nal]LCGDEYCA-NH2
modifications: linker 2-9-14 via TATA; N-terminus assumed
SMILES: CC(C)C[C@@H]1NC(=O)[C@H](Cc2cccc3ccccc23)NC(=O)[C@H](CC(=O)O)NC(=O)[C@@H]2CCCN2C(=O)[C@H](CC(C)C)NC(=O)[C@H](Cc2ccc(O)cc2)NC(=O)[C@@H](NC(=O)[C@H](C)N)CSCCC(=O)N2CN3CN(C2)C(=O)CCSC[C@@H](C(=O)N[C@@H](C)C(N)=O)NC(=O)[C@H](Cc2ccc(O)cc2)NC(=O)[C@H](CCC(=O)O)NC(=O)[C@H](CC(=O)O)NC(=O)CNC(=O)[C@H](CSCCC3=O)NC1=O
notes: scaffold TATA
B3: BCY15644 (peptide)
peptide: ACYLPD[2Nal]LCGDEYCA-NH2
modifications: linker 2-9-14 via TATA; N-terminus assumed
SMILES: CC(C)C[C@@H]1NC(=O)[C@H](Cc2ccc3ccccc3c2)NC(=O)[C@H](CC(=O)O)NC(=O)[C@@H]2CCCN2C(=O)[C@H](CC(C)C)NC(=O)[C@H](Cc2ccc(O)cc2)NC(=O)[C@@H](NC(=O)[C@H](C)N)CSCCC(=O)N2CN3CN(C2)C(=O)CCSC[C@@H](C(=O)N[C@@H](C)C(N)=O)NC(=O)[C@H](Cc2ccc(O)cc2)NC(=O)[C@H](CCC(=O)O)NC(=O)[C@H](CC(=O)O)NC(=O)CNC(=O)[C@H](CSCCC3=O)NC1=O
notes: scaffold TATA
B4: BCY15648 (peptide)
peptide: ACYLPDW[tBuAla]CGDEYCA-NH2
modifications: linker 2-9-14 via TATA; N-terminus assumed
SMILES: CC(C)C[C@@H]1NC(=O)[C@H](Cc2ccc(O)cc2)NC(=O)[C@@H](NC(=O)[C@H](C)N)CSCCC(=O)N2CN3CN(C2)C(=O)CCSC[C@@H](C(=O)N[C@@H](C)C(N)=O)NC(=O)[C@H](Cc2ccc(O)cc2)NC(=O)[C@H](CCC(=O)O)NC(=O)[C@H](CC(=O)O)NC(=O)CNC(=O)[C@H](CSCCC3=O)NC(=O)[C@H](CC(C)(C)C)NC(=O)[C@H](Cc2c[nH]c3ccccc23)NC(=O)[C@H](CC(=O)O)NC(=O)[C@@H]2CCCN2C1=O
notes: scaffold TATA
B5: BCY16134 (peptide)
peptide: [dA]CYLPDYLCGDEYC-NH2
modifications: linker 2-9-14 via TATA; N-terminus assumed
SMILES: CC(C)C[C@@H]1NC(=O)[C@H](Cc2ccc(O)cc2)NC(=O)[C@H](CC(=O)O)NC(=O)[C@@H]2CCCN2C(=O)[C@H](CC(C)C)NC(=O)[C@H](Cc2ccc(O)cc2)NC(=O)[C@@H](NC(=O)[C@@H](C)N)CSCCC(=O)N2CN3CN(C2)C(=O)CCSC[C@H](NC1=O)C(=O)NCC(=O)N[C@@H](CC(=O)O)C(=O)N[C@@H](CCC(=O)O)C(=O)N[C@@H](Cc1ccc(O)cc1)C(=O)N[C@H](C(N)=O)CSCCC3=O
notes: scaffold TATA
B6: BCY16135 (peptide)
peptide: ACYLPD[Phe(4-F)]LCGDEYCA-NH2
modifications: linker 2-9-14 via TATA; N-terminus assumed
SMILES: CC(C)C[C@@H]1NC(=O)[C@H](Cc2ccc(F)cc2)NC(=O)[C@H](CC(=O)O)NC(=O)[C@@H]2CCCN2C(=O)[C@H](CC(C)C)NC(=O)[C@H](Cc2ccc(O)cc2)NC(=O)[C@@H](NC(=O)[C@H](C)N)CSCCC(=O)N2CN3CN(C2)C(=O)CCSC[C@@H](C(=O)N[C@@H](C)C(N)=O)NC(=O)[C@H](Cc2ccc(O)cc2)NC(=O)[C@H](CCC(=O)O)NC(=O)[C@H](CC(=O)O)NC(=O)CNC(=O)[C@H](CSCCC3=O)NC1=O
notes: scaffold TATA
B7: BCY16136 (peptide)
peptide: ACYLPD[4MeOPhe]LCGDEYCA-NH2
modifications: linker 2-9-14 via TATA; N-terminus assumed
SMILES: COc1ccc(C[C@@H]2NC(=O)[C@H](CC(=O)O)NC(=O)[C@@H]3CCCN3C(=O)[C@H](CC(C)C)NC(=O)[C@H](Cc3ccc(O)cc3)NC(=O)[C@@H](NC(=O)[C@H](C)N)CSCCC(=O)N3CN4CN(C3)C(=O)CCSC[C@@H](C(=O)N[C@@H](C)C(N)=O)NC(=O)[C@H](Cc3ccc(O)cc3)NC(=O)[C@H](CCC(=O)O)NC(=O)[C@H](CC(=O)O)NC(=O)CNC(=O)[C@H](CSCCC4=O)NC(=O)[C@H](CC(C)C)NC2=O)cc1
notes: scaffold TATA
B8: BCY16140 (peptide)
peptide: ACYLPD[Phe(4-CONH2)]LCGDEYCA-NH2
modifications: linker 2-9-14 via TATA; N-terminus assumed
SMILES: CC(C)C[C@@H]1NC(=O)[C@H](Cc2ccc(C(N)=O)cc2)NC(=O)[C@H](CC(=O)O)NC(=O)[C@@H]2CCCN2C(=O)[C@H](CC(C)C)NC(=O)[C@H](Cc2ccc(O)cc2)NC(=O)[C@@H](NC(=O)[C@H](C)N)CSCCC(=O)N2CN3CN(C2)C(=O)CCSC[C@@H](C(=O)N[C@@H](C)C(N)=O)NC(=O)[C@H](Cc2ccc(O)cc2)NC(=O)[C@H](CCC(=O)O)NC(=O)[C@H](CC(=O)O)NC(=O)CNC(=O)[C@H](CSCCC3=O)NC1=O
notes: scaffold TATA

Target: T1, Human NKp46 Fc tag (Acro Biosystems, NC1-H5257) (human, UniProt O76036 22-255)
T1 construct: bought; also called Fc-tagged human NKp46
T1 sequence (O76036 22-255 limits assumed): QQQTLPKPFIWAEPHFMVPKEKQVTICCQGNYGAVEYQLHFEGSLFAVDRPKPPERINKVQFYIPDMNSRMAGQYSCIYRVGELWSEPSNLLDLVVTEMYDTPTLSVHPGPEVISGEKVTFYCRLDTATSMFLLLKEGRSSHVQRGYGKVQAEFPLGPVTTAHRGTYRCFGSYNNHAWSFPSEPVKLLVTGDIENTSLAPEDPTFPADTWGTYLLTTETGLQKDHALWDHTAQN
Assay: SPR Method 1 and/or 2
Procedure, shortened: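 Fc-tagged human NKp46 captured on anti-human IgG surface (500–1000 RU); compounds run in PBS-P+ with 2% DMSO at 25 °C, 50 μL/min, 60 s association, 400 s dissociation. Double-referenced, DMSO-corrected; KD from steady-state 1:1 fit, kinetic constants from kinetic 1:1 fit where appropriate.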

Point of comparison: ACNLQLHNCIWGVCA-NH2 (linker 2-9-14 via TATA; also: scaffold TATA, TATB or TBMT, scaffold TATA) [BCY15109], Kd 0.274 µM. Against it:
- ACDLTTHNCLWGVCA-NH2 (linker 2-9-14 via TATA; also: scaffold TATA, TATB or TBMT, scaffold TATA) [BCY15108] — 2.3-fold higher, 0.642 µM
- ACNLQLHNCQWGICA-NH2 (linker 2-9-14 via TATA; also: scaffold TATA, TATB or TBMT, scaffold TATA) [BCY15568] — 4-fold lower, 0.069 µM
- B1 — 3.3-fold lower, 0.083 µM

Target: T2, Human NKp46 His tag (Acro Biosystems, NC1-H52H4) (human, UniProt O76036 22-255)
T2 construct: bought; also called human NKp46-his tagged protein
T2 sequence (O76036 22-255 limits assumed): as above
Assay: FP competition vs BCY15035
Method: The untagged competitor peptides were diluted in assay buffer 25 mM HEPES, 100 mM NaCl, 0.01% P20, pH 7.4. to a top concentration of 5000 nM and diluted 2-fold in 11 steps. The human NKp46-his tagged protein (AcroBiosystems) was diluted to 40 nM final concentration in the assay. […] The total volume of 25 μL was prepared in black walled and flat-bottomed low binding low volume 384 well plates. Measurements were performed using Envision (PerkinElmer) equipped with the excitation filter FITC FP 480, emission filter FITC FP P-pol 535 and 2nd emission filter FITC FP S-pol 535 and set to 30 flashes. The gain was set in a well containing tracer alone without target protein.

Point of comparison: Ac-ACYLPDYLCGDEYCA-NH2 (linker 2-9-14 via TATA, scaffold TATA) [BCY15635], Ki 0.061 µM. Against it:
- ACYLPDYLCGDEYCA-NH2 (linker 2-9-14 via TATA; also: scaffold TATA, TATB or TBMT, scaffold TATA) [BCY15100] — within 1.5-fold, 0.049 µM
- ACALPDYLCGDEYCA-NH2 (linker 2-9-14 via TATA; also: cyclised with TATA, TATB or TBMT, scaffold TATA) [BCY15653] — 6.7-fold higher, 0.411 µM
- ACYLADYLCGDEYCA-NH2 (linker 2-9-14 via TATA; also: cyclised with TATA, TATB or TBMT, scaffold TATA) [BCY15655] — 5.3-fold higher, 0.324 µM
- ACYLPDYLCADEYCA-NH2 (linker 2-9-14 via TATA; also: cyclised with TATA, TATB or TBMT, scaffold TATA) [BCY15659] — 3.7-fold higher, 0.226 µM
- ACYLPDYLCGDAYCA-NH2 (linker 2-9-14 via TATA; also: cyclised with TATA, TATB or TBMT, scaffold TATA) [BCY15661] — 29-fold higher, 1.78 µM
- ACYLPDYLCGDEACA-NH2 (linker 2-9-14 via TATA; also: cyclised with TATA, TATB or TBMT, scaffold TATA) [BCY15662] — 11-fold higher, 0.672 µM
- CYLPDYLCGDEYC-NH2 (linker 1-8-13 via TATA; also: scaffold TATA, TATB or TBMT, scaffold TATA) [BCY15633] — within 1.5-fold, 0.086 µM
- Ac-CYLPDYLCGDEYC-NH2 (linker 1-8-13 via TATA; not fully specified, scaffold TATA) [BCY15634] — 1.6-fold higher, 0.098 µM
- ACYL[Aib]DYLCGDEYCA-NH2 (linker 2-9-14 via TATA, scaffold TATA) [BCY15642] — 15-fold higher, 0.91 µM
- B2 — 12-fold higher, 0.755 µM
- B3 — 2.6-fold higher, 0.159 µM
- B4 — 27-fold higher, 1.62 µM
- ACYLPDW[Cba]CGDEYCA-NH2 (linker 2-9-14 via TATA, scaffold TATA) [BCY15649] — 6.4-fold higher, 0.391 µM
- ACY[Ala(cPent)]PDYLCGDEYCA-NH2 (linker 2-9-14 via TATA, scaffold TATA) [BCY16130] — 5.3-fold higher, 0.321 µM
- B5 — within 1.5-fold, 0.077 µM
- B6 — 10-fold higher, 0.639 µM
- B7 — 4.4-fold higher, 0.269 µM
- B8 — 2-fold higher, 0.122 µM

Reference: US20240108738A1 (Bicycle, published 2024)
